Changes are numbered by the printed parent chain. In names and notes the source's numbering stands. Where two headings read alike, the source gives them in different places.
Experiments:
[1] = biological target: T1, FcγRIa (human, UniProt P12314 16-292); test: SPR (Biacore4000), kinetic analysis
T1 construct: extracellular domain; also called FcgRIa; FcgRI; not shown: His tag attached to the C terminus
Method: The variants described above were assessed for their binding to FcγR according to the method described in Reference Example 8.
Analysis of interaction between obj ective antibody and the FcγR was carried out using Biacore T100 (GE Healthcare), Biacore T200, Biacore A100, and Biacore 4000. HBS-EP+ (GE Healthcare) was used as the running buffer, and the measurement temperature was set to 25° C. Chips produced by immobilizing the antigen peptide by the amine coupling method to a Series S sensor Chip CM5 (GE Healthcare), chips produced by allowing preliminarily biotinylated antigen peptides to interact with and immobilize onto a Series S Sensor Chip SA (certified) (GE Healthcare), chips produced by immobilizing Protein L (ACTIGEN, BioVision) to Series S Sencor Chip CM5 (GE Healthcare), or chips produced by immobilizing Protein A/G (Thermo Scientific) to Series S Sencor Chip CM5 (GE Healthcare) were used. Antibodies of interest were captured onto these chips, and allowed to interact to each FcγR diluted with running buffer. To regenerate and repeatedly use the chip, the antibodies captured onto the chip were washed off by reacting 10 mM glycine-HCl, pH 1.5.

[2] = biological target: T2, FcγRIIIa extracellular domain with C-terminal His tag (human, UniProt P08637 17-208); test: SPR (Biacore), ratio of KD values for FcγRIIIa
T2 construct: extracellular domain; also called FcgRIIIa; CD16A

[3] = biological target: T2, FcγRIIIa extracellular domain with …; test: SPR (Biacore), ratio of KD values for FcγRIIIa; remark: listed apart in the source
Method: (§1) To assess this hypothesis, GpH7-A53 (SEQ ID NO: 42) resulting from the introduction of S239D into GpH7-A5 was constructed, and, this is combined with GpH7-B78 introduced with S239D, A330L, and I332E, and the expression and preparation were performed according to the method described in Reference Example 1. The effect of the combination of S239D and S239D, A330L, and I332E was assessed by comparing the FcγRIIIa binding between the heterodimerized and homodimerized antibodies with S239D, A330L, and I332E according to the method described in Reference Example 2 (Table 14).
(§2) Analysis of interaction between objective antibody and the FcγR was carried out using Biacore T100 (GE Healthcare). HBS-EP+ (GE Healthcare) was used as the running buffer, and the measurement temperature was set to 25° C. Chips produced by immobilizing the antigen peptide by the amine coupling method to a Series S Sencor Chip CM5 (GE Healthcare), or alternatively, chips produced by allowing preliminarily biotinylated antigen peptides to interact with and immobilize onto a Series S Sensor Chip SA (certified) (GE Healthcare) were used. Antibodies of interest were captured onto an antigen peptide-immobilized chip, and allowed to interact to each FcγR diluted with running buffer. To regenerate and repeatedly use the chip, the antibodies captured on the chip were washed off by reacting 10 mM glycine-HCl, pH 1.5.

[4] = biological target: T2, FcγRIIIa extracellular domain with …; test: SPR (Biacore), antibody captured, FcγRIIIa as analyte, 1:1 Langmuir kinetic fit
In short: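 Biacore T100 at 25° C in HBS-EP+; antibodies captured on antigen-peptide chips (amine-coupled CM5 or biotinylated peptide on SA), with FcγR in running buffer flowed over.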

[5] = biological target: T2, FcγRIIIa extracellular domain with …; test: as above; remark: listed apart in the source
Method: as §1, §2
(§3) The FcγR-binding activity of each antibody was assessed primarily using as an indicator the FcγR-binding activity and dissociation constant for FcγR.

[6] = biological target: T2, FcγRIIIa extracellular domain with …; test: SPR (Biacore), ratio of KD values for FcγRIIIa; remark: listed apart in the source
Source text: (§4) Then, GpH7-TA54 (SEQ ID NO: 46) resulting from the introduction of Y296W into GpH7-TA22 was constructed, and expressed and prepared in combination with GpH7-B78 according to the method described in Reference Example 1. Furthermore, GpH7-TA58 (SEQ ID NO: 45) resulting from the introduction of Y296W into GpH7-B78 was constructed, and expressed and prepared in combination with GpH7-TA22 according to the method described in Reference Example 1. To assess the effect of combination with Y296W, the prepared antibodies were compared for the FcγRIIIa-binding activity according to the method described in Reference Example 2 (Table 17).
as §2

[7] = biological target: T2, FcγRIIIa extracellular domain with …; test: SPR (Biacore), antibody captured, FcγRIIIa as analyte, 1:1 Langmuir kinetic fit; remark: listed apart in the source
Source text: as §4, §2, §3

[8] = biological target: T2, FcγRIIIa extracellular domain with …; test: SPR (Biacore), ratio of KD values for FcγRIIIa; remark: listed apart in the source
Source text: (§5) First, it was considered which H chain should be introduced with Y296W. GpH7-TA52 (SEQ ID NO: 44) resulting from the introduction of the mutation Y296W into GpH7-TA7 was constructed, and expressed and prepared in combination with GpH7-B78 according to the method described in Reference Example 1. Furthermore, GpH7-TA58 (SEQ ID NO: 45) resulting from the introduction of Y296W into GpH7-B78 was constructed, and expressed and prepared in combination with GpH7-TA22 according to the method described in Reference Example 1. To assess the effects of combinations with Y296W, the prepared antibodies were compared for the FcγRIIIa-binding activity according to the method described in Reference Example 2 (Table 16).
as §2

[9] = biological target: T2, FcγRIIIa extracellular domain with …; test: SPR (Biacore), antibody captured, FcγRIIIa as analyte, 1:1 Langmuir kinetic fit; remark: listed apart in the source
Source text: as §5, §2, §3

T2 sequence (P08637 17-208): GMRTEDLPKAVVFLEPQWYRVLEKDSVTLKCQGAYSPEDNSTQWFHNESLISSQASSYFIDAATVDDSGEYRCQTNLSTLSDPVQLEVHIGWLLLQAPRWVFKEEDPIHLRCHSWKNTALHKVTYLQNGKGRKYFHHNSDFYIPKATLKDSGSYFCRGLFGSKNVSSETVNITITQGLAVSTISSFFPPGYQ
T1 sequence (P12314 16-292): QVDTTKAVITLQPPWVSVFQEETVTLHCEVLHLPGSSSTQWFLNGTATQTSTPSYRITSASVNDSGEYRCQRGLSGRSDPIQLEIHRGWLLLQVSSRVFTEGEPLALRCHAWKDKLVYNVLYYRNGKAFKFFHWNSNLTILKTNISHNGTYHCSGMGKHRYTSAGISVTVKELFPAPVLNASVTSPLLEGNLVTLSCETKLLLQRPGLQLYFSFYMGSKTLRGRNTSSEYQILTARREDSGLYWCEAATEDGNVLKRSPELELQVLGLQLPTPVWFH

B1: H240-Kn120/H240-Hl073/L73-k0 (antibody, human IgG1, kappa)
heavy 1: QDQLVQSGAEVKKPGASVKVSCKASGFNIKDTYIQWVRQAPGQGLEWMGRIDPLRKQTKYREKFEGRVTITADTSTNTAYMELSSLRSEDTAVYYCVRSGREFDYWGQGTLVTVSSASTKGPSVFPLAPSSKSTSGGTAALGCLVKDYFPEPVTVSWNSGALTSGVHTFPAVLQSSGLYSLSSVVTVPSSSLGTQTYICNVNHKPSNTKVDKKVEPKSCDKTHTCPPCPAPEYYWGPMVFLFPPKPKDTLMISRTPEVTCVVVDVSDEDPEVKFNWYVDGVEVHNAKTKPREEQYNATYRVVSVLTVLHQDWLNGKEYKCKVSNKDLPAPIEKTISKAKGQPREPQVCTLPPSRDELTKNQVSLWCLVKGFYPSDIAVEWESNGQPENNYKTTPPVLDSDGSFFLYSKLTVDKSRWQQGNVFSCSVMHEALHNHYTQKSLSLSP
heavy 2: QDQLVQSGAEVKKPGASVKVSCKASGFNIKDTYIQWVRQAPGQGLEWMGRIDPLRKQTKYREKFEGRVTITADTSTNTAYMELSSLRSEDTAVYYCVRSGREFDYWGQGTLVTVSSASTKGPSVFPLAPSSKSTSGGTAALGCLVKDYFPEPVTVSWNSGALTSGVHTFPAVLQSSGLYSLSSVVTVPSSSLGTQTYICNVNHKPSNTKVDKKVEPKSCDKTHTCPPCPAPELLSGPSVFLFPPKPKDTLMISRTPEVTCVVVDVSHEEPEVKFNWYVDGVEVHNAKTKPREEQYNSTYRVVSVLTVLHQDWLNGKEYKCKVSNDALPKPIEETISKAKGQPREPQVYTLPPSRCELTKNQVSLSCAVKGFYPSDIAVEWESNGQPENNYKTTPPVLDSDGSFFLVSKLTVDKSRWQQGNVFSCSVMHEALHNHYTQKSLSLSP
light: DIQMTQSPSSLSASVGDRVTITCRASQDIHKYIAWYQQKPGQAPRLLIQYTSTLQPGVPSRFSGSGSGTDYTFTISSLQPEDIATYYCLQYEQLRTFGGGTKVEIKRTVAAPSVFIFPPSDEQLKSGTASVVCLLNNFYPREAKVQWKVDNALQSGNSQESVTEQDSKDSTYSLSSTLTLSKADYEKHKVYACEVTHQGLSSPVTKSFNRGEC
notes: G236S in H240-Hl068
koff [1]: < 5e-05 s⁻¹

B2: GpH7-A5/GpH7-B78/GpL16-k0 (antibody, human IgG1, kappa)
heavy 1: not shown
heavy 2: QVQLVQSGAEVKKPGASVTVSCKASGYTFTDYEMHWIRQPPGEGLEWIGAIDPKTGDTAYSESFQDRVTLTADKSTSTAYMELSSLTSEDTAVYYCTRFYSYTYWGQGTLVTVSSASTKGPSVFPLAPSSKSTSGGTAALGCLVKDYFPEPVTVSWNSGALTSGVHTFPAVLQSSGLYSLSSVVTVPSSSLGTQTYICNVNHKPSNTKVDKKVEPKSCDKTHTCPPCPAPELLGGPDVFLFPPKPKDTLMISRTPEVTCVVVDVSHEDPEVKFNWYVDGVEVHNAKTKPREEQYNSTYRVVSVLTVLHQDWLNGKEYKCKVSNKALPLPEEKTISKAKGQPREPQVYTLPPSRDELTKNQVSLTCLVKGFYPSDIAVEWESNGQPENNYKTTPPVLDSDGSFFLYSKLTVDKSRWQQGNVFSCSVMHEALHNHYTQESLSLSP
light: DIVMTQSPLSLPVTPGEPASISCQASESLVHSNRNTYLHWYLQKPGQSPQLLIYKVSNRFSGVPDRFSGSGSGTDFTLKISRVEAEDVGVYYCSQNTHVPPTFGQGTKVEIERTVAAPSVFIFPPSDEQLKSGTASVVCLLNNFYPREAKVQWKVDNALQSGNSQESVTEQDSKDSTYSLSSTLTLSKADYEKHKVYACEVTHQGLSSPVTKSFNRGEC
notes: Heterodimerized anti-glypican-3 IgG1 variant
KD ratio 1 (KD of GpH7-G1d/GpL16-k0 divided by KD of the antibody) [2]: 23 fold
KD ratio 2 (KD of GpH7-A5/GpH7-B3/GpL16-k0 divided by KD of the antibody) [2]: 30 fold
KD ratio (KD of GpH7-A5/GpH7-B78/GpL16-k0 divided by KD of the antibody) [3]: 1 fold
Kd [4]: 54 nM
Kd [5]: 54 nM

B3: GpH7-TA54/GpH7-B78/GpL16-k0 (antibody, human IgG1, kappa)
heavy 1: B2 heavy 2 with L232Y, G234W, Y294W, S296A, L328A, E330I, D354K, H433R, E437K
heavy 2: B2 heavy 2
light: B2 light
notes: as for B2
KD ratio (KD of GpH7-TA22/GpH7-B78/GpL16-k0 divided by KD of the antibody) [6]: 1.3 fold
Kd [7]: 1 nM

B4: GpH7-TA7/GpH7-TA58/GpL16-k0 (antibody, human IgG1, kappa)
heavy 1: B2 heavy 2 with L232Y, G234W, D237S, S296A, L328A, E330I, D354K, H433R, E437K
heavy 2: B2 heavy 2 with Y294W
light: B2 light
notes: as for B2
KD ratio (KD of GpH7-TA7/GpH7-B78/GpL16-k0 divided by KD of the antibody) [8]: 1.2 fold
Kd [9]: 3.3 nM

B5: GpH7-TA52/GpH7-B78/GpL16-k0 (antibody, human IgG1, kappa)
heavy 1: B2 heavy 2 with L232Y, G234W, D237S, Y294W, S296A, L328A, E330I, D354K, H433R, E437K
heavy 2: B2 heavy 2
light: B2 light
notes: as for B2
KD ratio (KD of GpH7-TA7/GpH7-B78/GpL16-k0 divided by KD of the antibody) [8]: 1.8 fold
Kd [9]: 2.3 nM

B6: GpH7-A57/GpH7-B78/GpL16-k0 (antibody, human IgG1, kappa)
heavy 1: B2 heavy 2 with D354K, H433R, E437K
heavy 2: B2 heavy 2
light: B2 light
notes: the chains differ only in D356K/H435R against K439E
KD ratio 1 (KD of GpH7-G1d/GpL16-k0 divided by KD of the antibody) [2]: 199 fold
KD ratio 2 (KD of GpH7-A5/GpH7-B3/GpL16-k0 divided by KD of the antibody) [2]: 263 fold
KD ratio (KD of GpH7-A5/GpH7-B78/GpL16-k0 divided by KD of the antibody) [3]: 8.7 fold
Kd [4]: 6.2 nM
Kd [5]: 6.2 nM

B7: GpH7-TA22/GpH7-TA58/GpL16-k0 (antibody, human IgG1, kappa)
heavy 1: B2 heavy 2 with L232Y, G234W, S296A, L328A, E330I, D354K, H433R, E437K
heavy 2: B2 heavy 2 with Y294W
light: B2 light
notes: as for B2
KD ratio (KD of GpH7-TA22/GpH7-B78/GpL16-k0 divided by KD of the antibody) [6]: 10 fold
Kd [7]: 1.3 nM

B8: GpH7-A53/GpH7-B78/GpL16-k0 (antibody, human IgG1, kappa)
heavy 1: B2 heavy 2 with L328A, E330I, D354K, H433R, E437K
heavy 2: B2 heavy 2
light: B2 light
notes: as for B2
KD ratio (KD of GpH7-A5/GpH7-B78/GpL16-k0 divided by KD of the antibody) [3]: 4.9 fold
Kd [5]: 11 nM

Reference: patent US20180155451A1 (published 2018)
